# From the nanobody polyreactivity screen of Harvey et al. (2022)
# Assay: yeast display, Sf9 membrane polyspecificity reagent, FACS + sequencing; frameworks hold sequencing errors
# Procedure, shortened: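 Using colony PCR, genes from sorted yeast display clones were amplified, then sequenced on MiSeq at 2 × 250 and filtered by CDR length. The clones had been stained with 10% biotinylated, detergent-solubilized Sf9 membrane reagent for 1 hour at 4 °C and sorted by FACS into low and high (top ~1%) gates on anti-HA and streptavidin fluorescence. Polyreactivity labels come from the gate of origin.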
row,Sequence,polyreactivity (PSR sort gate)
1,QVQLVESGGGLVQAGGSLRLSCAASGLTFAYYDMGWYRPAPGKERELVAAITSGGTTNYADSVKGRFTISRDNAKNTVYLQMNSQKPEDTADYYCAADRYYWGRYTLNYWGQGTQVTVSS,low polyreactivity
2,QVQLVESGGGLVQAGGSLRLSCAASGLTFDDYAMGWYRPAPWKEREFVATITLRGGSTYYADSVKGRFTISRDNAKNTVYLQLNSLKPEDTAVYYCNTDLGYSLEWDYDYWGQGTQVTVSS,low polyreactivity
3,QVQLVESGGGLVQAGGSLRLSCAASGLTFDDYAMGWYRQAPGKERELVAAINWSGSNTYYADSVKGRFTISRDNAKNTVYLQMNSLKPEDTAVYYCATYSRIFKWEYYYWGQGTQVTVSS,high polyreactivity
4,QVQLVESGGGLVQAGGSLRLSCAASGLTFDKNVMGWYRQAHGKERELVAAISRSGGTTYYADSVKGRFTISRDNAKYTVYLQMNSLKPEDTAVYYCAKRAWTGYGYYYWGQGTQVTVSS,high polyreactivity
5,QVQLVESGGGLVQAGGSLRLSCAASGLTFDLYNMGVYRKAPGKERELVAAISLSGGSTYYADSVKGRFTISRDNAKNTVYLQMNILKPDYTAVYYCAAAHSSSVIVEYDYWGQGTQVTVSS,low polyreactivity
6,QVQLVESGGGLVQAGGSLRLSCAASGLTFDSNAMGWYRQAPGKERELVAAISGSVGSTYYADSVKGRFTISRDNAKNTVYLQMNSLKPEDTAVYYCNASSVDKGYDYWGQGTQVTVSS,low polyreactivity
7,QVQLVESGGGLVQAGGSLRLSCAASGLTFDVYTMGWYRQAPGKERELVATISETYYADSVKGRFTISRDNAKNTVYLQMNSLKPEDTAVYYCAANGFKAQYRDIVYDYGYWGQGTQVTVSS,low polyreactivity
8,QVQLVESGGGLVQAGGSLRLSCAASGLTFDYYAMGWYRQAPGKERELVAVISRVGSTYYADSVKGRFTISRDNAKNTVYLQINSLKPEDTAVYYCAADLWHSYQDMYYWGQGTQVTVSS,low polyreactivity
9,QVQLVESGGGLVQAGGSLRLSCAASGLTFERYAMGWYRQAPGKERELVAAISIRGGSTYYADSVKGRFTISRDNAKNTVYLQMNSLKPEDTAVYYCNAESFSFYPSWHEYDYWGQGTQVTVSS,low polyreactivity
10,QVQLVESGGGLVQAGGSLRLSCAASGLTFEVYAMGWYRQARGKERELVAAISSGGGATYYADSVKGRFTISRDNAKNTVYLQMNSLKPEDTAVYYCAAVDPYERYVYWGQGTQVTVSS,low polyreactivity
11,QVQLVESGGGLVQAGGSLRLSCAASGLTFEYNAMGWYRQAPGKERELVATISNGGITSYADSVKGRFTISRDNAKNTVYLQMNSLKPEDTAVYYCAASYADSPTTDQLWLEYDSWGQGTQVTVSS,low polyreactivity
12,QVQLVESGGGLVQAGGSLRLSCAASGLTFFGNAMGWYRQAPGKERELVATISSGGGTSYADSVKGRFTISRDNAKNTVYLQMNSLKPEDTAVYYCAADIVEEFDYWGQGTQVTVSS,low polyreactivity
13,QVQLVESGGGLVQAGGSLRLSCAASGLTFFGYTMGWYRQAPGKEREFVADITWSGGSTYYADSVKGRFTISRDNAKNTVYLQMNSLKPEVTAVYYCAVAPPNWDPFVDDTYLMDYWGQGTQVTLSS,low polyreactivity
14,QVQLVESGGGLVQAGGSLRLSCAASGLTFFWNAMGWYRQAPGKERELVAAISYSGGSTSYADSVKGRFTISRDNAKNSVYLQMNSLKPEDTAVYYCAAEYWYGPSKGDYWGQGTQVTVSS,high polyreactivity
15,QVQLVESGGGLVQAGGSLRLSCAASGLTFGANDMGWYRQAPGKERELVAAIDWSGGSTFYADSVKGRFTISRDNAKNTVYLQMNSLKPEDTAVYYCAALGFGYPYPEYDYWGQGTQVTVSS,low polyreactivity
16,QVQLVESGGGLVQAGGSLRLSCAASGLTFGDYSMGWYRQAPGKERELVAAITWSGASTYYADSVKGRFTISRDNGMNTVYLQMNSLKPEDTAVYYCAAERTPSYRAYDYWGQGTQVTVSS,low polyreactivity
17,QVQLVESGGGLVQAGGSLRLSCAASGLTFGDYVMGWYRQAPGKERELVATITSDGGTTYADSVKGRFTISRDNAKNTVYLQMNSLKPEVTAVYYCYADAVVDNYVGFSAAGFDYWGQGTQVTVSS,low polyreactivity
18,QVQLVESGGGLVQAGGSLRLSCAASGLTFGFYAMGWYRQAPGKERELVAGISNGGSTNYADSVKGRFTISRDNAKNTVYLQMNSLKPEDTAVYYCAARLYARRLYDYWGQRTQVTVSS,low polyreactivity
19,QVQLVESGGGLVQAGGSLRLSCAASGLTFGGNAMGWYRQAPGKERELVAAISWSDDTTDYADSVKGRLTISRDNAKNTVYLQMNSLKPEDTAVYYCAARLPFEHVDYWGQGTQVTVSS,low polyreactivity
20,QVQLVESGGGLVQAGGSLRLSCAASGLTFGHYAMGWYRQAPGKERELVATISSRGVSTRYADSVKGRFTISRDNAKNTVYLQMNSLKPEDTAVYYCNARDYTWGKYYSSKIGYYYWGQGTQVTVSS,high polyreactivity
21,QVQLVESGGGLVQAGGSLRLSCAASGLTFGLNAMGWYRQAPGKERELVAAITWSGGSTYYADSVKGRFTISRDNAKNTVYLQMNSLKPEDTAVYYCATDNWSVNGGYNYWGQGTQVTVSS,low polyreactivity

row,Sequence,polyreactivity (PSR sort gate)
1,QVQLVESGGGLVQAGGSLRLSCAASGLTFGPYAMGWYRQAPGKERELVAAITSGGYTNYADSVKGRFTISRDNAMNTVYLQMNSLKPEDTAVYFCATSYYLAYRSITPYDYWGQGTQVTVSS,low polyreactivity
2,QVQLVESGGGLVQAGGSLRLSCAASGLTFGRYAMGWYRPAPGKERELVAAISSGGSTYYADSVKGRFTISRDNAKNTVYLQMNSLKPEDTAVYYCAADYVGWYFVSGRDYWGQGTQVTVSS,low polyreactivity
3,QVQLVESGGGLVQAGGSLRLSCAASGLTFGTNAMGWYIQAPGKERELVAAISTSSGSTYYADSVKGRFTISRDNAKNTVYLQMNSLKPEDTAVYYCAAVTVTKLSYYRYYYWGQGTQVTVSS,low polyreactivity
4,QVQLVESGGGLVQAGGSLRLSCAASGLTFGYYAMGWYRPAPGKEREFVAAISKSGGGTYYADSVKGRFTISRDNAKNTVYLQMNSLKPEDTAVYYCAARWFVGYNYWGQGTQVTVSS,high polyreactivity
5,QVQLVESGGGLVQAGGSLRLSCAASGLTFHVNAMGWYRQAPGKERELVAGITFSGGSTYYADSVKGRFTISRDNAKNTVYLLMNSLTPEDTAVYYCAADARFYAYYYWGQGTQVSVSS,low polyreactivity
6,QVQLVESGGGLVQAGGSLRLSCAASGLTFHYYAMGRYRQATGKERELVAVIRGSCTSTYYADSVKGRFTISRDNAKNTVYLQMNSLKPEDTAVYYFAAPYQYRRSGRVLGKYDSRGQGTQVTVSS,high polyreactivity
7,QVQLVESGGGLVQAGGSLRLSCAASGLTFIRYAMGWNRQAPGKERELVASISRGGSTYYADSVKGRFTISRDNAKNTVYLQMNSLKPEDTAVYYCAAQHVGHNYYNSGFYYWGQATQVTVSS,low polyreactivity
8,QVQLVESGGGLVQAGGSLRLSCAASGLTFIYKAMAWYRQAPGKERELVAAISGNGGDTYYADSVKGRFTISRDNAKKTVYLQMNSLKPEDTAVYYCAADYAYTPITWDEYWGQGTQVTVSS,low polyreactivity
9,QVQLVESGGGLVQAGGSLRLSCAASGLTFIYYSMGWYRQAPGKERELVAAISVSGGSTYYADSVKGRFTISRDNAKNTVYLQMNSLKPEYTAVYYCAGDWFVHKPRYQYSFDYWGQGTQVTVSS,low polyreactivity
10,QVQLVESGGGLVQAGGSLRLSCAASGLTFKRNAMGWYRPAPGKERELVAAIRYSTDSTNCADSVKGRFTISRDNAKNTVYLQMNSLKPEDTAVYYCAKDKQDYEYWGQGTQVTVSS,low polyreactivity
11,QVQLVESGGGLVQAGGSLRLSCAASGLTFKYYAMGWYRQAPGKERELVAAITSTGGRTYYADSVKGRFTISRDNAKNTVYLQMNSLKPEDTAVYYCAKDTHWAYYWGQGTQVTVSS,low polyreactivity
12,QVQLVESGGGLVQAGGSLRLSCAASGLTFLDYAMGWYRPAPGKERELVAAITSGGSTNYADSVKGRFTISRDNAKNTVYLQMNSLKPEDTAVYYCATDLEVSAYDYWGQGTQVTVSS,low polyreactivity
13,QVQLVESGGGLVQAGGSLRLSCAASGLTFLNKAMGWYREAPGKERELVAAISRGGSTNYADSVKGRFTISRDNAKNTVYLQMNSLKPQDTAGYYCAAQIFESAYGMDYWGQGTQVTVSS,low polyreactivity
14,QVQLVESGGGLVQAGGSLRLSCAASGLTFLVYAMGWYRQAPGKERELVAAITSIGDSTFYADSVKGRFTISRDNAKNTVYLQMNSLKPEDSAVYYCNADGPAGDIKFTLMDYDYWGQGTQVTVSS,low polyreactivity
15,QVQLVESGGGLVQAGGSLRLSCAASGLTFLVYAMGWYRQAPGKERELVAAITSIGDSTFYADSVKGRFTISRDNAKNTVYLQMNSLKPEDTAVYYCNADGPAGDIKFTLLDYDYWGQGTQVTVSS,low polyreactivity
16,QVQLVESGGGLVQAGGSLRLSCAASGLTFLWYAMGWYRQAPGKERELVAAITSGGRTKYADSVKGRFTISRDNAKNTVYLQMNSLKPEDTAVYYCAAYTQWWGYDYWGQGTQVTVSS,high polyreactivity
17,QVQLVESGGGLVQAGGSLRLSCAASGLTFNDYAMGWYRQAPGKERELVAAISDIGGGTYYADSVKGRFTISRDNAKNTVYLQMNSLKPEETAVYYCAAEWQDWYGVDSWGQGTQVTVSS,low polyreactivity
18,QVQLVESGGGLVQAGGSLRLSCAASGLTFNHNAMGWYRQAPGKERELVAAISRRGGSTYYADSVKGRFTISRDNAKNTVYLQMNSLKPEDTAVYYCNAPVKVRATTNWEYDYWGQGTQVTVSS,high polyreactivity
19,QVQLVESGGGLVQAGGSLRLSCAASGLTFNRNAMGWYRQAPGKERELVATISGSGASTYYADSVKGRFTISRDYAKNTVYLQMNSLKPEDTAVYDCAARWHYSWGSYGFDYWGQGTQVTVSS,high polyreactivity
20,QVQLVESGGGLVQAGGSLRLSCAASGLTFNTYAMGWYRQAPGKERELVAAITKGGGRTYYADSVKGRFTISRDNAKNTVYLQMNSLKPEDTAVYYCAAYGYIYRVGYANGVVTSQDDYWGQGTQVTVSS,high polyreactivity
